Data: patent publication US20260201058A1

Experiments:
[1] = target: human PD-L1 on GS-C2 cells (cells overexpressing human PD-L1, GenScript, M00613) (human) (UniProt Q9NZQ7); test: cell-based or functional assay
[2] = target: human PD-L1 on GS-C2 cells (cells overexpressing human PD-L1, GenScript, M00613) (human) (UniProt Q9NZQ7); test: flow cytometry on GS-C2 cells
[3] = target: monkey PD-L1 (Cyno-PD-L1) on cells (monkey (cyno)); test: flow cytometry on 293F-cyno PD-L1 cells

Chain of human PD-L1 on GS-C2 cells (cells overexpressing human PD-L1, GenScript, M00613) (human) (Q9NZQ7 19-290): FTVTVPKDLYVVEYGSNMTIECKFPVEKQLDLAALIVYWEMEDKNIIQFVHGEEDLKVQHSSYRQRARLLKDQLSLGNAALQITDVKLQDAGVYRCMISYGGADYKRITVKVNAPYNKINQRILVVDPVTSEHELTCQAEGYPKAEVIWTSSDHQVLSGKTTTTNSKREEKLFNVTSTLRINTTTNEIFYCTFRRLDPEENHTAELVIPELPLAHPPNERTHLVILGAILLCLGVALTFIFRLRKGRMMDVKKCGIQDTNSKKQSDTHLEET

Substance: control antibody Benchmark-ATE (monoclonal antibody, Atezolizumab)
- EC50 (nM), blocking of T cell PD-1/PD-L1 signaling pathway (GS-C2 cells with Jurket-NFAT-PD1 cells, luciferase) [1]: 2.38 nM
- EC50 [2]: 0.694 nM
- EC50 [3]: 1.34 nM
